Experimental data reported in patent US20220281949A1.

Key:
DR1-restricted TCR HA1.7 [1] = assay: flow cytometry: HA1.7-transduced primary CD4+ T cells stained with PE wild-type DR1 dextramer and anti-CD4
DR1-restricted TCR HA1.7 [2] = assay: flow cytometry: TCR-transduced primary human T cells stained with PE class II dimer and anti-CD4

percent of cells in the dextramer+ CD4+ quadrant (DR1-restricted TCR HA1.7 [1])	Substance	percent of cells in the dimer+ CD4+ quadrant (DR1-restricted TCR HA1.7 [2])
0.1%	CLIP, DR1 dextramer (peptide-MHC)	
	Control (DR1 L114W/V143M+2reps dimer) (peptide-MHC)	0.1%
